This data set deals with MBP-rAtCHE (Arabidopsis thaliana (homoeolog cloned from resynthesized A. thaliana x A. arenosa allotetraploid)). The data set can be described thus: EMSA. The note with it: reference for normalization; 25 mM HEPES pH 7.5, 2.5 mM DTT, 75 mM KCl, 10% glycerol, 1.25 ng poly-dIdC, 10 nM (~15 fmol) DNA, on ice 20 min; 5% native PAGE.

This note sets out measurements from publication PMC5366859.

AtCCA1p came in with a binding signal (fold (reference for rAaCHE)) of 1.
